The results in this text go back to the RNAGym collection of RNA variant scans (doi:10.1073/pnas.2313332121).

B1: TPR 5TU (parent)
chain: GGAUCUUCUCGAUCUAACAAAAAAGACAAAUCUGCCACAAAGCUUGAGAGCAUCUUCGGAUGCAGAGGCGGCAGCCUUCGGUGGCGCGAUAGCGCCAACGUUCUCAACUAUGACACGCAAAACGCGUGCUCCGUUGAAUGGAGUUUAUCAUG

This sample holds only a part of the variants without activity.

Variants of B1 are the subject of this data set. Kind of data set: polymerase ribozyme fitness, log enrichment relative to wild type (log ratio); higher = more active; in vitro selection for triplet polymerase activity. In short, it runs like this:
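Fitness compares each genotype's enrichment to that of the wild type on a logarithmic scale, averaging replicates with inverse-variance weights. The logarithm is base 2. Enrichment came from Illumina sequencing of input and output libraries after one triplicate round of in vitro selection, which included frozen incubation at −7 °C, of PCR-built, transcribed mutant libraries of each subunit of a heterodimeric triplet polymerase ribozyme. Only genotypes with ≥10 input reads and ≥1 read per output were kept.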
Regarding GGAUCUUCUCGAUCUAACAAAAAAGACAAAUCUGCCCCAAAGCUUGAGAGCAUCUUCGGAUGCAGAGGCGGUAGCCUUCGGUGGCGCCUUAGCGCCAACGUUCUCAACUAUGACACGCAAAACGCGUGCUCCGUUGAUUGGAGUGUAUCAUG, the “polymerase ribozyme fitness (log ratio)” value was no more than -4.2. Then GGAUCUUCUCGAUCUAACAAAAAAGACAAAUCUGCUACAAAGCUUGAGAGCAUCUUCGGAUGCAGAGGCGGCAGCCUUCGGUGGCGCGAUAGCGCCAACGUUCUCAACUAUGACACGCAAAACGCGUGCUCCGUUGAAUGGAGUUGAUCAUG, with -3.6; and GGAUCUUCUCGAUCUAACAAAAAAGACAAAUCUGCCCCAAAGCUUGAGAGCAUCUUCGGAUGCAGAGGCGGCAGCCUUCGGUGGCGUGAUAGCGCCAACGUUCUCAACUAUGACACGCUAAACGCGUCCUCCGUUGAAUGGAGUUUAUCAUG, with -3.46; and GGAUCUUCUCGAUCUAACAAAAAAGACAAAUCUGCCCCAAAGCUUGAGAGCAUCUUCGGAUGCAGAGGCGGCAGCCUUCGGUGGCGCGAUAGCGCCAACGUUCUCAACUAUGACACGUAAGACGCGUGCUCCGUUGAAUGGAGUUUAUCAUG, with 0.0889. Then GGAUCUUCUCGAUCUAACAAAAAAGACAAAUCUGCUACAAAGCUUGAGAGCAUCAUCAGAUGCAGAGGCGGCAGCCUUCGGUGGCGCGAUUGUGCCAACGUUCUCAACUAUGACACGCAAAACGCGAGCUCCGUUGAAUGGAGUUUACCAUG, with no more than -4.2; and GGAUCUUCUCGAUCUAACAAAAAAGACAAAUCUGCUACAAAGCUUGAGAGCAUCUUCGGAUGCACAGGCGGCAGCCUUCGGUGGCGCGAUAGCGCCAACGUGCUCAACUAUGACACGCAAAACGCGUGCUCCGUUGAAUCGAGUUUAUGAUG, with no more than -4.2; and GGAUCUUCUCGAUCUAACAAAAAAGACAAAUCUGCUACAAAGCUUGAGAGCAUCUUCGGAUGCAGAGGCGGCAGCCUUCGGUGGCGCGAUAGCGCCAACGUUCUCAACUAUGAUACGCAAAACGCGUGCUACGUUGAAUGGAGUUUAUCAUG, with no more than -4.2. Then GGAUCUUCUCGAUCUAACAAAAAAGACAAAUCUGCCCCAACGCUUGAGAGCAACUGCGAAUGCAGAGGCGGCAGCCUUUGGUGGCGAGAUAGCGCCAACGUUCUCAACUAUGUCACGCAAAACGCGUGCUCCGAUGAAUGGAGUUUAUCAUG, with no more than -4.2. As to GGAUCUUCUCGAUCUAACAAAAAAGACAAAUCUGCUACAAAGCUUGAGAGCAUCUGCGGAAGCAGAGGCGGCAGCCUUCGGUGGCGCGAUAGCGCCAACGUUCUCAACUAUGACACGCAAAACGCGUGCUCCGUUGAAUGGAGUUUAUCAUG, the “polymerase ribozyme fitness (log ratio)” value was no more than -4.2.

As for GGAUCUUCUCGAUCUAACAAAAAAGACAAAUCUGCUACAAAGCUUGAGAGCAUCUACGGAUGCAGAGGCGGCAGCCUUGGGUGGCGCGAGAGCGCCAACGUUCUCGACUAUGACACGCAAAACGUGUGCUCCGUUGAAUGGAGUUUAUCAUG, the “polymerase ribozyme fitness (log ratio)” value was no more than -4.2. Then GGAUCUUCUCGAUCUAACAAAAAAGACAAAUCUGCCCCAAAGCUUGAGAGCAUCUUCGGAUGCAGAGGCGGCAGUCGUCGGUGGCGCGCUAGAGCCAACGUUCUCAACUAUGACACGCAACACGCGUGCUCCGUUGAAUGGAGUUUAGCAGG, with no more than -4.2; and GGAUCUUCUCGAUCUAACAAAAAAGACAAAUCUGCCCCAAAGCUUGAGAGCAUCUUCGGAUGCAGAGGCGGCGGCCUUCGGUGGCACGAUAGCGCCAACGUUCUCAACUAUGACACGCAAAACGCGUGCUCCGUUGAAUGGAGUUUAUCAUG, with -2.34; and GGAUCUUCUCGAUCUAACAAAAAAGACAAAUCUGCCCCAAAGCUUGAGAGCGUCUUCGGAUGCAGAGGCGGCAGCCUUCGGUGCCGCGAUAGCGCCAACGUUCUCAACUAUGACACGCAAAACGCGUGCACCGUUGAAUGGACUUUAUCAUG, with no more than -4.2. For GGAUCUUCUCGAUCUAACAAAAAAGACAAAUCUGCCCCAGAGCUUGAGAUCAUCUUCGGAUGCAGAGGCGGCAGCCUUCGGUGGCACGAUAGCGCCUACGUUCUCAACUAUGACACGCAAAACGCGUGCUCCGUUGAAUGGAGUUUAUCAUG the value was no more than -4.2; for GGAUCUUCUCGAUCUAACAAAAAAGACAAAUCUGCUACAAAGCUUGAGAGCAUCUUCGGAUGCAGAGGCGGCAGCCUUCGGAAACUCGAUAGAGCUAACGUUCUCAACUAUGACACUCAAAACGCGUGCUCCGUUGAAUGGAGUUUAUCAUG, -3.98; for GGAUCUUCUCGAUCUAACAAAAAAGACAAAUCUGCCCCAAUGCUUGAGACCAUCUUCGGAUGCAGAGGCGGCAGCCUUCGUUGGCGCGAUAGCGUCAACGUUCUCAACUAAGACACGGAAAACGCGCGCUCCGUUGAAUGGCGUUUAUCAUG, no more than -4.2. For the variant GGAUCUUCUCGAUCUAACAAAAAAGACAAAUCUGCUACAAAGCUUGAGAGCAUCUUCGGAUGCAGAGGCGGCAGCCUUCGGUGGCGCGAUAGCGCCAACGUUCUCAACUAUGACACGCAAAACGCGUGCUCCGUUGAAUGGAGCUUAUCAUG, the “polymerase ribozyme fitness (log ratio)” value is -1.23. For GGAUCUUCUCGAUCUAACAAAAAAGACAAAUCUGCCCCAAAGCUUGAGAGAAUCUUCGGAUGCAGAGGCGGCAGCCUUCGGUGGCGCGAUAUCGCCAACGUUCUCCACUAUGACACGCAAAACGCGUGCUCCGUUGAAUGGAGUUUAUCAUG, the “polymerase ribozyme fitness (log ratio)” value is no more than -4.2. As to GGAUCUUCUCGAUCUAACAAAAAAGACAAAUCUGCUACAAAGCUUGAGAGCAUCUUCGGAUGCAGAGGCGGCAGCCUUCGGUGGCGCGAUAGCGCCAACGUUCUCAACUAUGACACGCAAAACGCGUGCUCCGUUGAAUGCAGUUUAUCAUG, the “polymerase ribozyme fitness (log ratio)” value was -2.17.
